Source: paper PMC6166728, “Structure–function analyses of the bacterial zinc metalloprotease effector protein GtgA uncover key residues required for deactivating NF-κB” (The Journal of Biological Chemistry, 2018)

Target: T1, GtgA(20–228)^E183Q (Salmonella Typhimurium strain ATCC …, UniProt A0A0F6AZI6 20-228, E183Q)
T1 construct: residues left by TEV cleavage of the His6–GST tag, before the first residue of GtgA; Cloned in pETM30 (TEV-cleavable N-terminal His6 and GST); source: E. coli BL21 PC2, purified (GSH–Sepharose, TEV cleavage, Superdex 75 SEC); not shown: His6, N-terminal, cleaved; GST, N-terminal, cleaved
T1 sequence: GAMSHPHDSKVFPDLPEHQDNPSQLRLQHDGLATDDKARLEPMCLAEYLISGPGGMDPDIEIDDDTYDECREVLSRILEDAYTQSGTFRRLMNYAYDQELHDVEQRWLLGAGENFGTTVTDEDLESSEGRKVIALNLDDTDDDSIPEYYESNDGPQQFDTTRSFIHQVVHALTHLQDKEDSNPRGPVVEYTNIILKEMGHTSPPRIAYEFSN
Assay: crystal structure; GtgA(20–228)^E183Q–p65(20–188) complex, 175 μM of each protein mixed immediately prior to crystallization; sitting drop, 20 °C, 0.1 M Tris pH 8.3, 0.5 M LiCl, 32.5% (w/v) PEG 6000; Zn2+-free; single heterodimer in the asymmetric unit
Settings: both partners purified

B1: p65(20–188) (domain or fragment, murine)
chain: AYVEIIEQPKQRGMRFRYKCEGRSAGSIPGERSTDTTKTHPTIKINGYTGPGTVRISLVTKDPPHRPHPHELVGKDCRDGYYEADLCPDRSIHSFQNLGIQCVKKRDLEQAISQRIQTNNNPFHVPIEEQRGDYDLNAVRLCFQVTVRDPAGRPLLLTPVLSHPIFDNRA
notes: single alanine left by ULP1 cleavage of the His6–SUMO tag, before the first residue of p65; NF-κB subunit p65 (RelA), murine, amplified from RAW264.7 cDNA, N-terminal domain residues 20–188; Cloned in pE-SUMO (LifeSensors); also called p65 NTD; p65 N-terminal domain; source: E. coli BL21 PC2, purified (Ni-NTA, ULP1 cleavage, Superdex 75 SEC); not shown: His6, N-terminal, cleaved; SUMO, …
binding result: binds
